# From patent publication US20150344570A1 (published 2015)
# T1: FcγRIIb (human, UniProt P31994 43-217)
# T1 construct: extracellular domain; Soluble extracellular domain with C-terminal His tag, used as analyte in Biacore; also called FcgRIIb; 2b; not shown: His tag attached to the C terminus
# T1 sequence (looked up): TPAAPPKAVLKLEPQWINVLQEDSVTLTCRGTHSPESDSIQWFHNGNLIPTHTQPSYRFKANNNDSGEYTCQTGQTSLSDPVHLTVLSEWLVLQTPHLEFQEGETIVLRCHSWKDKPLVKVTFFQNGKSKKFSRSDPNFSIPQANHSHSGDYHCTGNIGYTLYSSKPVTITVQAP
# B1: GpH7-A5/GpH7-B3 variant G237_02A/GpL16-k0 (antibody, human IgG1, kappa)
# heavy 1: not shown
# heavy 2: not shown
# light: DIVMTQSPLSLPVTPGEPASISCQASESLVHSNRNTYLHWYLQKPGQSPQLLIYKVSNRFSGVPDRFSGSGSGTDFTLKISRVEAEDVGVYYCSQNTHVPPTFGQGTKVEIERTVAAPSVFIFPPSDEQLKSGTASVVCLLNNFYPREAKVQWKVDNALQSGNSQESVTEQDSKDSTYSLSSTLTLSKADYEKHKVYACEVTHQGLSSPVTKSFNRGEC
# notes: Heterodimerized anti-glypican-3 IgG1; alteration in the GpH7-B3 chain only; also called He Ab
# B2: GpH7-A5/GpH7-B3 variant G236_09D/GpL16-k0 (antibody, human IgG1, kappa)
# heavy 1: not shown
# heavy 2: not shown
# light: B1 light
# notes: as for B1
# B3: GpH7-A5/GpH7-B3 variant G237_04F/GpL16-k0 (antibody, human IgG1, kappa)
# heavy 1: not shown
# heavy 2: not shown
# light: B1 light
# notes: as for B1
# B4: GpH7-A5/GpH7-B3 variant G237_06M/GpL16-k0 (antibody, human IgG1, kappa)
# heavy 1: not shown
# heavy 2: not shown
# light: B1 light
# notes: as for B1
# B5: GpH7-A5/GpH7-B3 variant G237_08L/GpL16-k0 (antibody, human IgG1, kappa)
# heavy 1: not shown
# heavy 2: not shown
# light: B1 light
# notes: as for B1
# B6: GpH7-A5/GpH7-B3 variant G237_09D/GpL16-k0 (antibody, human IgG1, kappa)
# heavy 1: not shown
# heavy 2: not shown
# light: B1 light
# notes: as for B1
# B7: GpH7-A5/GpH7-B3 variant G237_10E/GpL16-k0 (antibody, human IgG1, kappa)
# heavy 1: not shown
# heavy 2: not shown
# light: B1 light
# notes: as for B1
# B8: GpH7-A5/GpH7-B3 variant G237_15Y/GpL16-k0 (antibody, human IgG1, kappa)
# heavy 1: not shown
# heavy 2: not shown
# light: B1 light
# notes: as for B1
# B9: GpH7-A5/GpH7-B3 variant G237_18N/GpL16-k0 (antibody, human IgG1, kappa)
# heavy 1: not shown
# heavy 2: not shown
# light: B1 light
# notes: as for B1
# B10: GpH7-A5/GpH7-B3 variant G237_19Q/GpL16-k0 (antibody, human IgG1, kappa)
# heavy 1: not shown
# heavy 2: not shown
# light: B1 light
# notes: as for B1
# B11: GpH7-A5/GpH7-B3 variant G237_20W/GpL16-k0 (antibody, human IgG1, kappa)
# heavy 1: not shown
# heavy 2: not shown
# light: B1 light
# notes: as for B1
# B12: GpH7-A5/GpH7-B3 variant L234_09D/GpL16-k0 (antibody, human IgG1, kappa)
# heavy 1: not shown
# heavy 2: not shown
# light: B1 light
# notes: as for B1
# B13: GpH7-A5/GpH7-B3 variant L235_09D/GpL16-k0 (antibody, human IgG1, kappa)
# heavy 1: not shown
# heavy 2: not shown
# light: B1 light
# notes: as for B1
# B14: GpH7-A5/GpH7-B3 variant L235_15Y/GpL16-k0 (antibody, human IgG1, kappa)
# heavy 1: not shown
# heavy 2: not shown
# light: B1 light
# notes: as for B1
# B15: GpH7-A5/GpH7-B3 variant L235_20W/GpL16-k0 (antibody, human IgG1, kappa)
# heavy 1: not shown
# heavy 2: not shown
# light: B1 light
# notes: as for B1
# B16: GpH7-A5/GpH7-B3 variant P238_04F/GpL16-k0 (antibody, human IgG1, kappa)
# heavy 1: not shown
# heavy 2: not shown
# light: B1 light
# notes: as for B1
# B17: GpH7-A5/GpH7-B3 variant P238_06M/GpL16-k0 (antibody, human IgG1, kappa)
# heavy 1: not shown
# heavy 2: not shown
# light: B1 light
# notes: as for B1
# B18: GpH7-A5/GpH7-B3 variant P238_08L/GpL16-k0 (antibody, human IgG1, kappa)
# heavy 1: not shown
# heavy 2: not shown
# light: B1 light
# notes: as for B1
# B19: GpH7-A5/GpH7-B3 variant P238_09D/GpL16-k0 (antibody, human IgG1, kappa)
# heavy 1: not shown
# heavy 2: not shown
# light: B1 light
# notes: as for B1
# B20: GpH7-A5/GpH7-B3 variant P238_10E/GpL16-k0 (antibody, human IgG1, kappa)
# heavy 1: not shown
# heavy 2: not shown
# light: B1 light
# notes: as for B1
# B21: GpH7-A5/GpH7-B3 variant P238_15Y/GpL16-k0 (antibody, human IgG1, kappa)
# heavy 1: not shown
# heavy 2: not shown
# light: B1 light
# notes: as for B1
# B22: GpH7-A5/GpH7-B3 variant S239_01G/GpL16-k0 (antibody, human IgG1, kappa)
# heavy 1: not shown
# heavy 2: not shown
# light: B1 light
# notes: as for B1
# B23: GpH7-A5/GpH7-B3 variant S239_08L/GpL16-k0 (antibody, human IgG1, kappa)
# heavy 1: not shown
# heavy 2: not shown
# light: B1 light
# notes: as for B1
# B24: GpH7-A5/GpH7-B3 variant S239_09D/GpL16-k0 (antibody, human IgG1, kappa)
# heavy 1: not shown
# heavy 2: not shown
# light: B1 light
# notes: as for B1
# B25: GpH7-A5/GpH7-B3 variant S239_10E/GpL16-k0 (antibody, human IgG1, kappa)
# heavy 1: not shown
# heavy 2: not shown
# light: B1 light
# notes: as for B1
# B26: GpH7-A5/GpH7-B3 variant V266_06M/GpL16-k0 (antibody, human IgG1, kappa)
# heavy 1: not shown
# heavy 2: not shown
# light: B1 light
# notes: as for B1
# B27: GpH7-B3 variant Y300_01G/GpL16-k0 (homodimerized antibody, Ho Ab) (antibody, human IgG1, kappa)
# heavy: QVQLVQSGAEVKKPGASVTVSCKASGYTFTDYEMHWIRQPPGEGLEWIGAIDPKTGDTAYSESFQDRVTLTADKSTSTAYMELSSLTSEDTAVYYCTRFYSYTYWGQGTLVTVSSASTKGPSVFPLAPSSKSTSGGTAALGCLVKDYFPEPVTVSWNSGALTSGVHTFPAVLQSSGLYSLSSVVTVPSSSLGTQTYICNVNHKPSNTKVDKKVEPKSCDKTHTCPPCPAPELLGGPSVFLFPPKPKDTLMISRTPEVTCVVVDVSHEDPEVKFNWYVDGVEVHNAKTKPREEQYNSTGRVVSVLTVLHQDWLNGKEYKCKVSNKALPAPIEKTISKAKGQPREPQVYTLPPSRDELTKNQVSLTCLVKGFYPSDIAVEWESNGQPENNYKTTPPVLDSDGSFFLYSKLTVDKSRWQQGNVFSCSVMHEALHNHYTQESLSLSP
# light: B1 light
# notes: Anti-glypican-3 IgG1 (G1d with K439E); same alteration in both H chains
# B28: GpH7-B3 variant T335_16H/GpL16-k0 (homodimerized antibody, Ho Ab) (antibody, human IgG1, kappa)
# heavy: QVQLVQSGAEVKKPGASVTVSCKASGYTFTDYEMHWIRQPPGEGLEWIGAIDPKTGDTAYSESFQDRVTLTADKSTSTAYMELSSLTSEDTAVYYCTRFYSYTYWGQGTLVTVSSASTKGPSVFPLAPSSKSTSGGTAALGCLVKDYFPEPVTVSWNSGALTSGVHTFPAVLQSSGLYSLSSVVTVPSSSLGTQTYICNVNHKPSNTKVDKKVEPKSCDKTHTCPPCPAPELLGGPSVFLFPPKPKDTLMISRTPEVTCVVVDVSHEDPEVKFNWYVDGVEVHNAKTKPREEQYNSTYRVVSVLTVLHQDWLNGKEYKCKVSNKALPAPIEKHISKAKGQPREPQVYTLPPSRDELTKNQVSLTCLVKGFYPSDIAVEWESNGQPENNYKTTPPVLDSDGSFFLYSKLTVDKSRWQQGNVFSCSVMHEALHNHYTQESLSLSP
# light: B1 light
# notes: as for B27
# B29: GpH7-B3 variant T335_18N/GpL16-k0 (homodimerized antibody, Ho Ab) (antibody, human IgG1, kappa)
# heavy: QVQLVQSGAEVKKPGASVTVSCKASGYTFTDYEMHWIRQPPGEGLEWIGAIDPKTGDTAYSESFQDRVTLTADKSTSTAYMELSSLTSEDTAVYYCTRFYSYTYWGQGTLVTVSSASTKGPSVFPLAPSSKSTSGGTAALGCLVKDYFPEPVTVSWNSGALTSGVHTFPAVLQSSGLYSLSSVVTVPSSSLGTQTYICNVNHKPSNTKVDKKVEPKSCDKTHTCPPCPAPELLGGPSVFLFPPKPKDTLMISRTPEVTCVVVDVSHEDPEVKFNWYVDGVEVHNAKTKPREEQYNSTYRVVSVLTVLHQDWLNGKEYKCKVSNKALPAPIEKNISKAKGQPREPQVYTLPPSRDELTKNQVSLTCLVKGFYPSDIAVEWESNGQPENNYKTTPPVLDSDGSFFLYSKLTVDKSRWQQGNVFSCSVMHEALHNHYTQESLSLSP
# light: B1 light
# notes: as for B27
# B30: GpH7-B3 variant T335_19Q/GpL16-k0 (homodimerized antibody, Ho Ab) (antibody, human IgG1, kappa)
# heavy: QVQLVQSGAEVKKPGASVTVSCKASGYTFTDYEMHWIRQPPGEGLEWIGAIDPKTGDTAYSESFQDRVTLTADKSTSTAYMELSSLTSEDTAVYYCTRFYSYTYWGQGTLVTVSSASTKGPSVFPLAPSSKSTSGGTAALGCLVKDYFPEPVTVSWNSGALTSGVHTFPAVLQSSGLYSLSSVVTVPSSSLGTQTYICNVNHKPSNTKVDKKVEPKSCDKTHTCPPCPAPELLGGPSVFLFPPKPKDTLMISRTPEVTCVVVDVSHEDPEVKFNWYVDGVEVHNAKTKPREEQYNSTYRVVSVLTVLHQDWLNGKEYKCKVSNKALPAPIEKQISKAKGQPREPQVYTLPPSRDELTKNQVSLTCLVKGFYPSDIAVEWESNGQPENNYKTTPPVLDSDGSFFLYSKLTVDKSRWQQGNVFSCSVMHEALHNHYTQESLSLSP
# light: B1 light
# notes: as for B27
# B31: GpH7-B3 variant T335_20W/GpL16-k0 (homodimerized antibody, Ho Ab) (antibody, human IgG1, kappa)
# heavy: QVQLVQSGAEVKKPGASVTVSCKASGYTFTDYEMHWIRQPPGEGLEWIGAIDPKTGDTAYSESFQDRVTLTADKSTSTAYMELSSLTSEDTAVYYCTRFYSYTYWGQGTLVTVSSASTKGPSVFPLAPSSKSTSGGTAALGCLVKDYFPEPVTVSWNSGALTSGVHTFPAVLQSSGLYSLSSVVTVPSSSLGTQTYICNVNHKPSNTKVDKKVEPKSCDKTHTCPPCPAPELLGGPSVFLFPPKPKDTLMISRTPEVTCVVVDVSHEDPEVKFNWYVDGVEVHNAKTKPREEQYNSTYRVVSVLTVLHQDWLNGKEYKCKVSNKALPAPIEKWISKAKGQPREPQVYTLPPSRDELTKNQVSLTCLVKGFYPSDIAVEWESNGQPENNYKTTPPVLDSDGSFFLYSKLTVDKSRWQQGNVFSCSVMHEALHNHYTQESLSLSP
# light: B1 light
# notes: as for B27
# B32: GpH7-B3 variant Y296_06M/GpL16-k0 (homodimerized antibody, Ho Ab) (antibody, human IgG1, kappa)
# heavy: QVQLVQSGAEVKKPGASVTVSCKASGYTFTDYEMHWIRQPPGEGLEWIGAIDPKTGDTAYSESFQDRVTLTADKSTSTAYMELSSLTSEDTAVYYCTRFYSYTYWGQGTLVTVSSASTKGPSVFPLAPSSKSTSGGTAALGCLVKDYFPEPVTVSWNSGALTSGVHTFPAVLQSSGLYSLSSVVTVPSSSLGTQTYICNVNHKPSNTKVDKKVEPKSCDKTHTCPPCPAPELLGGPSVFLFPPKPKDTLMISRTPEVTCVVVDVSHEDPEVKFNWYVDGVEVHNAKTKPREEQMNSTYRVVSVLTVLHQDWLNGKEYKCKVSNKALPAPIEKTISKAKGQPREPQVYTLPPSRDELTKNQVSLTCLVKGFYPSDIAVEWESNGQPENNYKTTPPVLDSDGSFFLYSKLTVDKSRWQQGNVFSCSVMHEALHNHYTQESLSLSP
# light: B1 light
# notes: as for B27
# B33: GpH7-B3 variant Y296_10E/GpL16-k0 (homodimerized antibody, Ho Ab) (antibody, human IgG1, kappa)
# heavy: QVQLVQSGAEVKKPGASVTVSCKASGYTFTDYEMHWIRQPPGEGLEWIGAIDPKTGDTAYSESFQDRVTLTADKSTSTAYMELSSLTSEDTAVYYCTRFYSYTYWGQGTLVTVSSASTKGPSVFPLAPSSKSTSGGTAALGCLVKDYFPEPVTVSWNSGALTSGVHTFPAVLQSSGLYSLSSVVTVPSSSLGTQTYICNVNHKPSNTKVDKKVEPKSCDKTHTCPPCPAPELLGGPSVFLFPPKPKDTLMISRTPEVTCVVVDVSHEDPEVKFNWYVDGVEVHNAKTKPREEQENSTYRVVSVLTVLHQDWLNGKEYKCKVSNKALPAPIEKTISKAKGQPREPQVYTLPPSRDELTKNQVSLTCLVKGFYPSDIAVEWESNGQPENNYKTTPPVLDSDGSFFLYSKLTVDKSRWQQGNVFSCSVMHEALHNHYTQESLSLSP
# light: B1 light
# notes: as for B27
# B34: GpH7-B3 variant Y296_11K/GpL16-k0 (homodimerized antibody, Ho Ab) (antibody, human IgG1, kappa)
# heavy: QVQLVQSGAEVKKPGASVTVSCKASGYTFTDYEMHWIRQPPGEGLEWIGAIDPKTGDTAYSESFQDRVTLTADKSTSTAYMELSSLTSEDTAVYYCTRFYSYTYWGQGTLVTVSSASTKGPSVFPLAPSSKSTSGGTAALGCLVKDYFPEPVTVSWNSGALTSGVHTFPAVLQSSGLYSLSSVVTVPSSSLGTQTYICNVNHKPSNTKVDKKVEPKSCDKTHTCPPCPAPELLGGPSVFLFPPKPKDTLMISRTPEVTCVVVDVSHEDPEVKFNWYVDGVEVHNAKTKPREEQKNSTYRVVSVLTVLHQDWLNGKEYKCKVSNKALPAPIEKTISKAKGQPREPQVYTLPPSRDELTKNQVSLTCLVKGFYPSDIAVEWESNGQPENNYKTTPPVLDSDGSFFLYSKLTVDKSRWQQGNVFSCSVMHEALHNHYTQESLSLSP
# light: B1 light
# notes: as for B27
# Biological target: T2, FcγRIa (human, UniProt P12314 16-292)
# T2 construct: extracellular domain; Soluble extracellular domain with C-terminal His tag, used as analyte in Biacore; also called FcgRI; 1a; not shown: His tag attached to the C terminus
# Test: SPR (Biacore), antibody captured, FcγR as analyte; relative to GpH7-A5/GpH7-B3/GpL16-k0 = 100
# Protocol: (§1) The heterodimerized antibodies He Abs in which one of the H chains was introduced with an alteration were assayed for their binding activities to each activating FcγR and inhibitory FcγR according to the method described in Example 4. […] The activating FcγRs in FIGS. 26, 27, 28, and 29 are FcγRIa, FcγRIIa (R), FcγRIIa (H), and FcγRIIIa, respectively.
# T2 sequence (P12314 16-292): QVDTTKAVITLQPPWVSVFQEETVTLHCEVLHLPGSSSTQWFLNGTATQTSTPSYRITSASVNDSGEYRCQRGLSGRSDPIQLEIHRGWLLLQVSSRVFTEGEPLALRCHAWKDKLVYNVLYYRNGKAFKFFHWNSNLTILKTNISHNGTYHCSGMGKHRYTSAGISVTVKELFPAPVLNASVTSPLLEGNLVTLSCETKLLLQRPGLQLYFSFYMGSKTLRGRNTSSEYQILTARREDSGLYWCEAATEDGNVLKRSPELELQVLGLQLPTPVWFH
# (§2) Analysis of interaction between objective antibody and the FcγR was carried out using Biacore T100 (GE Healthcare). HBS-EP+ (GE Healthcare) was used as the running buffer, and the measurement temperature was set to 25° C. Chips produced by immobilizing the antigen peptide by the amine coupling method to a Series S Sencor Chip CM5 (GE Healthcare), or alternatively, chips produced by allowing preliminarily biotinylated antigen peptides to interact with and immobilize onto a Series S Sensor Chip SA (certified) (GE Healthcare) were used. Antibodies of interest were captured onto an antigen peptide-immobilized chip, and allowed to interact to each FcγR diluted with running buffer. To regenerate and repeatedly use the chip, the antibodies captured on the chip were washed off by reacting 10 mM glycine-HCl, pH 1.5.
row,Binder,He/Con_1a
1,B1,90.3 % of control (=100)
2,B2,96.6 % of control (=100)
3,B3,81.5 % of control (=100)
4,B4,81.6 % of control (=100)
5,B5,79.6 % of control (=100)
6,B6,84 % of control (=100)
7,B7,75.1 % of control (=100)
8,B8,79.6 % of control (=100)
9,B9,82.5 % of control (=100)
10,B10,82.8 % of control (=100)
11,B11,78.4 % of control (=100)
12,B12,97.8 % of control (=100)
13,B13,84.8 % of control (=100)
14,B14,97.1 % of control (=100)
15,B15,92.8 % of control (=100)
16,B16,101 % of control (=100)
17,B17,102 % of control (=100)
18,B18,101 % of control (=100)
19,B19,96 % of control (=100)
20,B20,102 % of control (=100)
21,B21,101 % of control (=100)
22,B22,101 % of control (=100)
23,B23,99.8 % of control (=100)
24,B24,101 % of control (=100)
25,B25,105 % of control (=100)
26,B26,99.7 % of control (=100)

# Biological target: T1, FcγRIIb
# Test: as above
# Protocol: as §1, §2
row,Binder,He/Con_2b
1,B1,124 % of control (=100)
2,B2,167 % of control (=100)
3,B3,149 % of control (=100)
4,B4,130 % of control (=100)
5,B5,148 % of control (=100)
6,B6,223 % of control (=100)
7,B7,114 % of control (=100)
8,B8,152 % of control (=100)
9,B9,180 % of control (=100)
10,B10,108 % of control (=100)
11,B11,193 % of control (=100)
12,B12,150 % of control (=100)
13,B13,106 % of control (=100)
14,B14,149 % of control (=100)
15,B15,147 % of control (=100)
16,B16,312 % of control (=100)
17,B17,174 % of control (=100)
18,B18,204 % of control (=100)
19,B19,221 % of control (=100)
20,B20,232 % of control (=100)
21,B21,218 % of control (=100)
22,B22,144 % of control (=100)
23,B23,140 % of control (=100)
24,B24,206 % of control (=100)
25,B25,181 % of control (=100)
26,B26,251 % of control (=100)

# Biological target: T2, FcγRIa
# Test: SPR (Biacore); He/Con_1a divided by He/Con_2b (binding to FcγRIa against binding to FcγRIIb)
# Protocol: as §1, §2
row,Binder,He_1a/2b (Ia/IIb)
1,B1,0.73 ratio
2,B2,0.58 ratio
3,B3,0.55 ratio
4,B4,0.63 ratio
5,B5,0.54 ratio
6,B6,0.38 ratio
7,B7,0.66 ratio
8,B8,0.52 ratio
9,B9,0.46 ratio
10,B10,0.77 ratio
11,B11,0.41 ratio
12,B12,0.65 ratio
13,B13,0.8 ratio
14,B14,0.65 ratio
15,B15,0.63 ratio
16,B16,0.32 ratio
17,B17,0.59 ratio
18,B18,0.49 ratio
19,B19,0.43 ratio
20,B20,0.44 ratio
21,B21,0.46 ratio
22,B22,0.7 ratio
23,B23,0.71 ratio
24,B24,0.49 ratio
25,B25,0.58 ratio
26,B26,0.4 ratio

# Biological target: T3, FcγRIa (human, UniProt P12314 16-292)
# T3 construct: extracellular domain; Soluble extracellular domain with C-terminal His tag, expressed in FreeStyle293 cells; analyte in Biacore; also called FcgRI; CD64; not shown: His tag attached to the C terminus
# Test: SPR (Biacore), antibody captured on antigen-peptide chip, FcγRIa as analyte; binding activity relative to control GpH7-B3/GpL16-k0 (HoCon Ab) x100
# Protocol: as §2
# T3 sequence (P12314 16-292): as above
row,Binder,Ho/Con_1a
1,B27,109 % of control (=100)
2,B28,104 % of control (=100)
3,B29,102 % of control (=100)
4,B30,105 % of control (=100)
5,B31,104 % of control (=100)
6,B32,104 % of control (=100)
7,B33,106 % of control (=100)
8,B34,102 % of control (=100)
